The values below are quoted from earlier work in publication PMC6723671.

pKd: −log10 of the molar value.

In this data set the target is CD150 (SLAM) ECD (Homo sapiens) (UniProt Q13291).

The pKd is the Kd on a negative log10 scale, so that one unit is a factor of ten. CD150 (SLAM) ECD (from UniProt Q13291): the pKd is less than 3.70.
